According to PMC12699829, “Development of a glutamine-responsive MRI contrast agent” (Chemical Science, 2025):
Positions count from the first letter of the chain named. Names may count otherwise. Read-outs that look alike come from different tables or passages of the source. Blank lines part the entries; values can stand above or below the molecule they belong to.

What was measured:
Type in all cases: physicochemical
[1] = T1 and T2 relaxivity measurements at 9.4 T (400 MHz NMR); details: for Holo/Apo % r1 Change / Holo/Apo % r2 Change: 37 °C; for r1 (Holo) / r2 (Holo) / r1 (Apo) / r2 (Apo): PBS buffer pH 7.4, 37 °C; for r1 (Holo) / r2 (Holo): with Gln; for r1 (Apo) / r2 (Apo): without Gln
Procedure: The effectiveness of a contrast agent depends on its “relaxivity”, which is measured in units of mM^−1 s^−1, and quantifies how much a given concentration of the contrast agent improves water relaxation rates. T1 and T2 relaxivities are denoted r1 and r2, respectively, and are calculated according to eqn (1):1 [drawing 1] Here, Ti and Ti^0 are the relaxation times in the presence and absence of the contrast agent, respectively, and [C] is the concentration of the contrast agent. […] The relaxivity of a contrast agent depends not only on the properties of the molecule but also on the strength of the magnetic field used for the measurement. Whereas early MRI instruments were relatively weak (<1 T), the modern clinical standard has risen to 1–3 T, wth an increasing number of even more powerful instruments (>3 T) in recent years. Thus, we performed relaxivity experiments at both the most clinically relevant field strengths 1.4 T and at the more cutting-edge field strength of 9.4 T.
10% D 2O (assay buffer). S tock solutions of swArM in assay buffer was prepared at1.11, 0.83, 0.56, and 0.28 mM. Apo- and holo-swArM samples were prepared from the same stock by adding either 20 μL assay buffer or 20 μL 0. 1 M Gln in assay buffer, to 180 μL of protein solution, respectively. Final protein concentrations were verified using the molar extinction coefficient ε28 0 = 25.9 mM -1 cm -1.
B. NM R M easu r ements . Relaxivities of all variants were determined at 37 °C from spectra taken at 9.4 T (400 mHz) using a Varian Inova 400 -MHz NMR spectrometer equipped with a Nalorac, 5 mm, DR probe. Select variants were also investigated at 32°C at 1.4 T (60 mHz) using a Nanalysis NMReady60 Pro instrument. Measurements were typically performed on 4 diffe rent concentrations of contrast agent and on the same buffer with no contrast agent. Temperature- dependent relaxivity measurements were performed using a Varian Inova 500-MHz NMR spectrometer, equipped with a Vari an, 5-mm, TR PFG probe with inverse proton detection. Temperature- dependent relaxivity was determined using either two concen trations of contrast agent ( 0. 5 and 1. 0 mM ) or t hree (0. 3, 0. 6, and 0.9 mM) . The temperature was calibrated using the 1H NMR signal of ethylene glycol.20 T1 measurements were performed using the inversion recovery method21 and T2 measurements were performed using the Carr–Purcell–Meiboom –G ill (CPMG) p ulse […]
Six or more pulse delay times (τ) were chosen to ensure coverage of the Ti under observation, and the delay between pulse sequences was set to at least 5-times T1.
Optimized 90° and 180° pulse widths were determined on the day of the experiment, and typically spanned 16‒2 0 μs (90° pulse width) and 32‒4 0 μs (180° pulse width). The delay in the CPMG pulse sequence was set to at least 50 times the 180° pulse width to allow at least four echo loops .
C. A n al ysi s . To determine Ti, data were analyzed via MestReNova software. For each spectrum, an integration was performed over the water peak, and the values obtained (dependent variable) were plotted against τ (independent variable). […]
then fit to a monoexponential decay according to Eq. 1. From these analyses, we obtain Ti for each sample concentration and type.
The quantity described by Eq. 2, where Ti at zero added sample is T0, was then plotted against the swArM concentration and a linear regression model was applied. The slope of this line gives the contrast agent relaxivity ri.

[2] = T1 and T2 relaxivity measurements at 1.4 T (60 MHz NMR); details: for Holo/Apo % r1 Change / Holo/Apo % r2 Change: 32 °C; for r1 (Holo) / r2 (Holo) / r1 (Apo) / r2 (Apo): PBS buffer pH 7.4, 32 °C; for r1 (Holo) / r2 (Holo): with Gln; for r1 (Apo) / r2 (Apo): without Gln
[3] = Stability of swArM samples prepared in PBS buffer for relaxivity studies
Source text: Next, we set out to investigate alternative ligands to coordinate Ln^3+ ions. As shown in Chart 1, we investigated two DOTA derivatives (DOTA-mal^N and DOTA-mal^C) as well as an acyclic version of DOTA, diethylene triamine pentaacetic acid (DTPA), and a six-coordinate version of the eight-coordinate DOTA ligand, nonane triacetic acid (NOTA). […] This ligand has previously been tested with Gd^3+ as an MRI contrast agent in PBS buffer, with no reported stability issues.[40] The fact that conjugation to our protein decreased the kinetic stability of Gd(NOTA) exemplifies the impact of the specific protein environment.

[4] = free contrast agent control, PBS pH 7.4, 37 °C
[5] = listed as [Dy(DOTA-mal^N)]72-GlnBP

r1 (+Gln) [1, 4]: 2.80 ± 0.07 mM⁻¹ s⁻¹
r1 (−Gln) [1, 4]: 2.82 ± 0.04 mM⁻¹ s⁻¹
r2 (+Gln) [1, 4]: 3.6 ± 0.2 mM⁻¹ s⁻¹
r2 (−Gln) [1, 4]: 3.5 ± 0.1 mM⁻¹ s⁻¹
Molecule: O=C([O-])CN1CCN(CC(=O)[O-])CCN(CC(=O)[O-])CCN(CC(=O)[O-])CC1.[Gd+3] [Gd(DOTA), reference compound]
+Gln/−Gln % r1 Change ([1]; free contrast agent control): 0 ± 3%
+Gln/−Gln % r2 Change ([1]; free contrast agent control): 1 ± 6%

B1: [Gd(DOTA-mal^N)]72: swArM: Gd(DOTA-mal^N) metallocofactor covalently attached at Cys72 of T72C E. coli glutamine-binding protein (GlnBP) (conjugate, UniProt P0AEQ3 23-248, looked up, variant T72C)
Glutamine-binding periplasmic …: ADKKLVVATDTAFVPFEFKQGDKYVGFDVDLWAAIAKELKLDYELKPMDFSGIIPALQTKNVDLALAGITICDERKKAIDFSDGYYKSGLLVMVKANNNDVKSVKDLDGKVVAVKSGTGSVDYAKANIKTKDLRQFPNIDNAYMELGTNRADAVLHDTPNILYFIKTAGNGQFKAVGDSLEAQQYGIAFPKGSDELRDKVNGALKTLRENGTYNEIYKKWFGTEPK
modifications: Gd(DOTA-malN) at Cys72
Holo/Apo % r1 Change [1]: –1 ± 2%
Holo/Apo % r2 Change [1]: 20 ± 5%
r1 (Holo) [1]: 4.32 ± 0.07 mM⁻¹ s⁻¹
r2 (Holo) [1]: 43.2 ± 0.8 mM⁻¹ s⁻¹
r1 (Holo) ([1]; listed as [Gd(DOTA-malN)]72): 4.32 mM⁻¹ s⁻¹
r1 (Apo) [1]: 4.35 ± 0.07 mM⁻¹ s⁻¹
r2 (Apo) [1]: 36 ± 1 mM⁻¹ s⁻¹
r1 (Apo) ([1]; listed as [Gd(DOTA-malN)]72): 4.35 mM⁻¹ s⁻¹
Holo/Apo % r1 Change [2]: 4 ± 2%
Holo/Apo % r2 Change [2]: 11 ± 2%
r1 (Holo) [2]: 20.4 ± 0.3 mM⁻¹ s⁻¹
r2 (Holo) [2]: 41.5 ± 0.4 mM⁻¹ s⁻¹
r1 (Holo) ([2]; listed as [Gd(DOTA-malN)]72): 20.4 mM⁻¹ s⁻¹
r1 (Apo) [2]: 19.5 ± 0.4 mM⁻¹ s⁻¹
r2 (Apo) [2]: 37.2 ± 0.7 mM⁻¹ s⁻¹
r1 (Apo) ([2]; listed as [Gd(DOTA-malN)]72): 19.5 mM⁻¹ s⁻¹

B2: [Gd(NOTA)mal^N)]72-GlnBP: swArM: Gd complex of maleimide-functionalized NOTA attached at Cys72 of T72C-GlnBP (conjugate, UniProt P0AEQ3 23-248, looked up, variant T72C)
Glutamine-binding periplasmic …: B1 Glutamine-binding periplasmic …
modifications: Gd(NOTA-mal) at Cys72
stability of the swArM in PBS buffer (metal loss, precipitate) ([3]; PBS buffer): precipitate formation

B3: [Dy(DOTA-mal^N)]72-N127Y: swArM: Dy(DOTA-mal^N) on T72C/N127Y double variant of GlnBP (conjugate, UniProt P0AEQ3 23-248, looked up, variant T72C N127Y)
Glutamine-binding periplasmic …: B1 Glutamine-binding periplasmic … with N127Y
modifications: Dy(DOTA-malN) at Cys72
notes: swArM: Dy(DOTA-mal^N) on T72C/N127Y double variant of GlnBP
Holo/Apo % r2 Change [1]: 40 ± 7%
r2 (Holo) [1]: 9.1 ± 0.2 mM⁻¹ s⁻¹
r2 (Apo) [1]: 6.5 ± 0.3 mM⁻¹ s⁻¹

B4: [Dy(DOTA-mal^N)]72-A126Y: swArM: Dy(DOTA-mal^N) on T72C/A126Y double variant of GlnBP (conjugate, UniProt P0AEQ3 23-248, looked up, variant T72C A126Y)
Glutamine-binding periplasmic …: B1 Glutamine-binding periplasmic … with A126Y
modifications: Dy(DOTA-malN) at Cys72
notes: swArM: Dy(DOTA-mal^N) on T72C/A126Y double variant of GlnBP
Holo/Apo % r2 Change [1]: 58 ± 6%
r2 (Holo) [1]: 10.8 ± 0.2 mM⁻¹ s⁻¹
r2 (Apo) [1]: 6.8 ± 0.2 mM⁻¹ s⁻¹

B5: [Dy(DOTA-malN)]72-Q183Y: swArM: Dy(DOTA-mal^N) on T72C/Q183Y double variant of GlnBP (conjugate, UniProt P0AEQ3 23-248, looked up, variant T72C Q183Y)
Glutamine-binding periplasmic …: B1 Glutamine-binding periplasmic … with Q183Y
modifications: Dy(DOTA-malN) at Cys72
notes: swArM: Dy(DOTA-mal^N) on T72C/Q183Y double variant of GlnBP
Holo/Apo % r2 Change [1]: 29 ± 4%
r2 (Holo) [1]: 18.0 ± 0.4 mM⁻¹ s⁻¹
r2 (Apo) [1]: 14.0 ± 0.1 mM⁻¹ s⁻¹

B6: [Dy(DOTA-malN)]72-A126D: swArM: Dy(DOTA-mal^N) on T72C/A126D double variant of GlnBP (conjugate, UniProt P0AEQ3 23-248, looked up, variant T72C A126D)
Glutamine-binding periplasmic …: B1 Glutamine-binding periplasmic … with A126D
modifications: Dy(DOTA-malN) at Cys72
notes: swArM: Dy(DOTA-mal^N) on T72C/A126D double variant of GlnBP
Holo/Apo % r2 Change [1]: 23 ± 5%
r2 (Holo) [1]: 11.7 ± 0.09 mM⁻¹ s⁻¹
r2 (Apo) [1]: 9.5 ± 0.3 mM⁻¹ s⁻¹

B7: [Gd(DTPA-malN)]72: swArM: Gd complex of maleimide-functionalized DTPA attached at Cys72 of T72C-GlnBP (conjugate, UniProt P0AEQ3 23-248, looked up, variant T72C)
Glutamine-binding periplasmic …: B1 Glutamine-binding periplasmic …
modifications: Gd(DTPA-mal) at Cys72
notes: swArM: Gd complex of maleimide-functionalized DTPA attached at Cys72 of T72C-GlnBP
stability of the swArM in PBS buffer (metal loss, precipitate) [3]: did not observe loss of metal to solution over time
Holo/Apo % r1 Change [1]: 3 ± 3%
Holo/Apo % r2 Change [1]: 10 ± 10%
r1 (Holo) [1]: 4.14 ± 0.05 mM⁻¹ s⁻¹
r2 (Holo) [1]: 72 ± 4 mM⁻¹ s⁻¹
r1 (Apo) [1]: 4.0 ± 0.1 mM⁻¹ s⁻¹
r2 (Apo) [1]: 65 ± 4 mM⁻¹ s⁻¹
Holo/Apo % r1 Change [2]: 7 ± 4%
Holo/Apo % r2 Change [2]: 11 ± 6%
r1 (Holo) [2]: 17.8 mM⁻¹ s⁻¹
r2 (Holo) [2]: 30.3 ± 0.9 mM⁻¹ s⁻¹
r1 (Apo) [2]: 16.7 mM⁻¹ s⁻¹
r2 (Apo) [2]: 27 ± 1 mM⁻¹ s⁻¹

B8: [Gd(DOTA-malN)]72-Q183K: swArM: Gd(DOTA-mal^N) on T72C/Q183K double variant of GlnBP (conjugate, UniProt P0AEQ3 23-248, looked up, variant T72C Q183K)
Glutamine-binding periplasmic …: B1 Glutamine-binding periplasmic … with Q183K
modifications: Gd(DOTA-malN) at Cys72
notes: swArM: Gd(DOTA-mal^N) on T72C/Q183K double variant of GlnBP
r2 (Holo) [1]: 28.2 ± 0.8 mM⁻¹ s⁻¹
r2 (Apo) [1]: 30.9 ± 0.2 mM⁻¹ s⁻¹

B9: [Dy(DOTA-mal^N)]72: swArM: Dy(DOTA-mal^N) attached at Cys72 of T72C-GlnBP (conjugate, UniProt P0AEQ3 23-248, looked up, variant T72C)
Glutamine-binding periplasmic …: B1 Glutamine-binding periplasmic …
modifications: Dy(DOTA-malN) at Cys72
notes: swArM: Dy(DOTA-mal^N) attached at Cys72 of T72C-GlnBP
Holo/Apo % r1 Change [1]: –1 ± 5%
Holo/Apo % r2 Change [1]: 36 ± 3%
r1 (Holo) [1]: 0.37 ± 0.02 mM⁻¹ s⁻¹
r2 (Holo) [1, 5]: 9.3 ± 0.1 mM⁻¹ s⁻¹
r1 (Apo) [1]: 0.37 ± 0.01 mM⁻¹ s⁻¹
r2 (Apo) [1]: 6.83 ± 0.04 mM⁻¹ s⁻¹
r1 (Apo) ([1]; listed as [Dy(DOTA-malN)]72): 0.37 mM⁻¹ s⁻¹
r2 (Apo) [1, 5]: 6.86 ± 0.08 mM⁻¹ s⁻¹
r1 value ([1]; apo/holo not specified): below the practical detection limit
Holo/Apo % r1 Change [2]: 4 ± 5%
Holo/Apo % r2 Change [2]: 40 ± 20%
r1 (Holo) [2]: 0.201 mM⁻¹ s⁻¹
r1 (Apo) [2]: 0.176 mM⁻¹ s⁻¹

B10: [Dy(DOTA-malN)]72-G119K: swArM: Dy(DOTA-mal^N) on T72C/G119K double variant of GlnBP (conjugate, UniProt P0AEQ3 23-248, looked up, variant T72C G119K)
Glutamine-binding periplasmic …: B1 Glutamine-binding periplasmic … with G119K
modifications: Dy(DOTA-malN) at Cys72
notes: swArM: Dy(DOTA-mal^N) on T72C/G119K double variant of GlnBP
Holo/Apo % r2 Change [1]: 15 ± 4%
r2 (Holo) [1]: 8.5 ± 0.2 mM⁻¹ s⁻¹
r2 (Apo) [1]: 7.39 ± 0.07 mM⁻¹ s⁻¹

B11: [Dy(DOTA-malC)]72-A126Y: swArM: Dy(DOTA-mal^C), linker on carbon of carboxylate arm, on T72C/A126Y GlnBP (conjugate, UniProt P0AEQ3 23-248, looked up, variant T72C A126Y)
Glutamine-binding periplasmic …: B1 Glutamine-binding periplasmic … with A126Y
modifications: Dy(DOTA-malC) at Cys72
notes: swArM: Dy(DOTA-mal^C), linker on carbon of carboxylate arm, on T72C/A126Y GlnBP
r2 (Holo) [1]: 9.6 ± 0.2 mM⁻¹ s⁻¹
r2 (Apo) [1]: 9.7 ± 0.1 mM⁻¹ s⁻¹
